Experimental data: the supplement of paper PMC10065799, “High-throughput profiling of sequence recognition by tyrosine kinases and SH2 domains using bacterial peptide display” (eLife, 2023)

What was measured:
[1] = tested on: AncSZ; assay: phosphorylation enrichment, bacterial display (enrichment ratio); higher = better substrate or ligand; peptides without Tyr show the background
[2] = biological target: EPHB1 (UniProt P54762); assay: as above
[3] = biological target: EPHB2 (UniProt P29323); assay: as above
EPHB2, sequence (P29323 whole entry, looked up): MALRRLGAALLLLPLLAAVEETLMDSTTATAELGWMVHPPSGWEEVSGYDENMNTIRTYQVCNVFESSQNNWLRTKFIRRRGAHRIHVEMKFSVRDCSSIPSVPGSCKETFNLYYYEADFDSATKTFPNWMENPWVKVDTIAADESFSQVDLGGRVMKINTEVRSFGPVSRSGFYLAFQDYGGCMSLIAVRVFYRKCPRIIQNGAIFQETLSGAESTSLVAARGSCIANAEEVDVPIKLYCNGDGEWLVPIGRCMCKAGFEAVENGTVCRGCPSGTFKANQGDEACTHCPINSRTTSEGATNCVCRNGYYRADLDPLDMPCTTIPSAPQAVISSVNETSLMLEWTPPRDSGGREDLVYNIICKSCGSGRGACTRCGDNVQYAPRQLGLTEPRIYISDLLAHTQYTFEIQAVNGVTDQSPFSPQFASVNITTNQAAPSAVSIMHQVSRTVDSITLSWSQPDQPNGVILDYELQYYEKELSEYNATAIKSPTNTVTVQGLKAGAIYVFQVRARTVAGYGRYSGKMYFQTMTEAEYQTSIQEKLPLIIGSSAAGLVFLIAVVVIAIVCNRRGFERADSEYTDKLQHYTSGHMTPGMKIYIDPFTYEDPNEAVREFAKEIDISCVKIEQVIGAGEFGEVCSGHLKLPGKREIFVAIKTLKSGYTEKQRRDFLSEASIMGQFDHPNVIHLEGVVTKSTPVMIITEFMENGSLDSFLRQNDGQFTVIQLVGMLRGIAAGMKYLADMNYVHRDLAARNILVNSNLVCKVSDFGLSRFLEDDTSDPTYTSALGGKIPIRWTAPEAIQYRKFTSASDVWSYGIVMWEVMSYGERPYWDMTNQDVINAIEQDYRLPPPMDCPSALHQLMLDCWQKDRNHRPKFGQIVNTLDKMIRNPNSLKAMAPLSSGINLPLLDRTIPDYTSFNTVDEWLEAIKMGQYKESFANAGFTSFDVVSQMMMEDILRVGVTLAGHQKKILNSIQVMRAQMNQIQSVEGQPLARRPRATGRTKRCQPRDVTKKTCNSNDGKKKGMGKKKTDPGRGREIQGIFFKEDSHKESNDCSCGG

[4] = biological target: FGFR1 (UniProt P11362); assay: as above
FGFR1, sequence (P11362 whole entry, looked up): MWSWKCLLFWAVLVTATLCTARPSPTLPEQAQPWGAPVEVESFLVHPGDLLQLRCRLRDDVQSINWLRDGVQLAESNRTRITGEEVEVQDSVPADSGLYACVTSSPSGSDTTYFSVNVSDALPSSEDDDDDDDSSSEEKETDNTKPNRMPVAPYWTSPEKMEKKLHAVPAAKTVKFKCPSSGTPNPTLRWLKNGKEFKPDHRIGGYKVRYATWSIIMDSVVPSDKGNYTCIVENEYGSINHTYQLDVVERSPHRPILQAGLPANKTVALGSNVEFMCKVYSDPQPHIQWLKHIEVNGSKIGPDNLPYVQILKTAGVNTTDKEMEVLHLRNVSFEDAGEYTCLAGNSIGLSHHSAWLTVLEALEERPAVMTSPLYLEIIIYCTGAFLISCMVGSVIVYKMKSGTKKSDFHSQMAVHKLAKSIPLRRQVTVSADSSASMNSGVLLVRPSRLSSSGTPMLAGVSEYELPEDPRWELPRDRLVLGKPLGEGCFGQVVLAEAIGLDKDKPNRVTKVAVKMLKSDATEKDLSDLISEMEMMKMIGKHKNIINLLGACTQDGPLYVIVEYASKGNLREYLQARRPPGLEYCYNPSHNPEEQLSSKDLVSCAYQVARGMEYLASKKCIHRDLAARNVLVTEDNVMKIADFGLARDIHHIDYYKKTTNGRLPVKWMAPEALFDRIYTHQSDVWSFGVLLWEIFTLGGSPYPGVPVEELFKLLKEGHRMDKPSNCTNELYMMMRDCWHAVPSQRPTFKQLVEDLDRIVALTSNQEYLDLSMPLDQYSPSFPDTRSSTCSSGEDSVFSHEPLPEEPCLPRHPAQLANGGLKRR

[5] = biological target: FGFR3 (UniProt P22607); assay: as above
[6] = tested on: Fer (mouse); assay: as above
[7] = biological target: Fes (UniProt P07332); assay: as above
Fes, sequence (P07332 whole entry, looked up): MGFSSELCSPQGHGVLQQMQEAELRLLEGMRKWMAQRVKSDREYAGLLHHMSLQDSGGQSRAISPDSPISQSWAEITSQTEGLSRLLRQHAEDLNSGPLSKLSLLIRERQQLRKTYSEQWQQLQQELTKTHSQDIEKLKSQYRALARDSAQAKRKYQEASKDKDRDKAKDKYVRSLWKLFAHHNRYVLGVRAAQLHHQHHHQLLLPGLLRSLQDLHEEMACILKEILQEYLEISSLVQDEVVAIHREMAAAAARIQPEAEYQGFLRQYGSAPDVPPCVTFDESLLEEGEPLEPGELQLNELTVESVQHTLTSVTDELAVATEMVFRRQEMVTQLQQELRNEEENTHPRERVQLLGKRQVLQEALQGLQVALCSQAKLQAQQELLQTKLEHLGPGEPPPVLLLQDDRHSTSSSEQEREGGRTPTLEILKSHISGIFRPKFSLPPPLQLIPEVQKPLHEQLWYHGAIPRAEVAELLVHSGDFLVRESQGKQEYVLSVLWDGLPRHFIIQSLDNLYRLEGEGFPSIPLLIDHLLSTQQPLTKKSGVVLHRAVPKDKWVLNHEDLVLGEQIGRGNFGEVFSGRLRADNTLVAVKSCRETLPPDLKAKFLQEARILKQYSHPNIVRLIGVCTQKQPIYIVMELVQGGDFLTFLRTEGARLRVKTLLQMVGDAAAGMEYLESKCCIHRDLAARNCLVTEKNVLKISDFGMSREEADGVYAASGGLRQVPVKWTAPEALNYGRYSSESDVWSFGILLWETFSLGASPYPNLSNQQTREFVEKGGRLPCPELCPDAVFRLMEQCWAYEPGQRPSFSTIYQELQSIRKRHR

[8] = biological target: Fyn (UniProt P06241); assay: as above
Fyn, sequence (P06241 whole entry, looked up): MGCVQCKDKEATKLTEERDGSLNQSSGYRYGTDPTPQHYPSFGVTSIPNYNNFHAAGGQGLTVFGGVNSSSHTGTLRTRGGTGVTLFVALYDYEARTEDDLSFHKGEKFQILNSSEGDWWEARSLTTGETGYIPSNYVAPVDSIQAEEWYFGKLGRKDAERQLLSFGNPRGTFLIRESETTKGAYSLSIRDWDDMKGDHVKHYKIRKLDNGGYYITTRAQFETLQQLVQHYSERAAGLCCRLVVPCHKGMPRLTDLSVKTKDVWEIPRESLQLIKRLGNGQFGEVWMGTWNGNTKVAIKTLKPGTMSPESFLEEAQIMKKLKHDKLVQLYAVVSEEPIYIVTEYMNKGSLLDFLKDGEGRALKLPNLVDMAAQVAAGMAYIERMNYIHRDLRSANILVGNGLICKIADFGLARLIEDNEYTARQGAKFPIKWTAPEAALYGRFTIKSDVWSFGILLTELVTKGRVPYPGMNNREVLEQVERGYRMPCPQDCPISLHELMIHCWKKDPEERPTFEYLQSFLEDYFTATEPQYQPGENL

[9] = biological target: Hck (UniProt P08631); assay: as above
Hck, sequence (P08631 whole entry, looked up): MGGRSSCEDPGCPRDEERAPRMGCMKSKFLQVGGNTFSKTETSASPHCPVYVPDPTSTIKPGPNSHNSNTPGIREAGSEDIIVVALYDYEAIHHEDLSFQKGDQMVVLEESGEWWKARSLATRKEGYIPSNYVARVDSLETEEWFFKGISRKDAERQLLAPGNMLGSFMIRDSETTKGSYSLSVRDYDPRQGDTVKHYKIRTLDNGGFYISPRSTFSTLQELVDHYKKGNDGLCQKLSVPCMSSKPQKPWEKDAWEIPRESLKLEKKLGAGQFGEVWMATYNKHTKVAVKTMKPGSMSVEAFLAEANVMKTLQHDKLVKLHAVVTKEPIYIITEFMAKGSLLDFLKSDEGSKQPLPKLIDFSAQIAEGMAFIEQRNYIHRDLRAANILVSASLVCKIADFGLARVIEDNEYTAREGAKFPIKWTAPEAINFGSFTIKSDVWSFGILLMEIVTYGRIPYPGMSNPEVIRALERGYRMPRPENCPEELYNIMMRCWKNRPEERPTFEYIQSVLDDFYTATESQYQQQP

[10] = biological target: Jak2 (UniProt O60674); assay: as above
Jak2, sequence (O60674 whole entry, looked up): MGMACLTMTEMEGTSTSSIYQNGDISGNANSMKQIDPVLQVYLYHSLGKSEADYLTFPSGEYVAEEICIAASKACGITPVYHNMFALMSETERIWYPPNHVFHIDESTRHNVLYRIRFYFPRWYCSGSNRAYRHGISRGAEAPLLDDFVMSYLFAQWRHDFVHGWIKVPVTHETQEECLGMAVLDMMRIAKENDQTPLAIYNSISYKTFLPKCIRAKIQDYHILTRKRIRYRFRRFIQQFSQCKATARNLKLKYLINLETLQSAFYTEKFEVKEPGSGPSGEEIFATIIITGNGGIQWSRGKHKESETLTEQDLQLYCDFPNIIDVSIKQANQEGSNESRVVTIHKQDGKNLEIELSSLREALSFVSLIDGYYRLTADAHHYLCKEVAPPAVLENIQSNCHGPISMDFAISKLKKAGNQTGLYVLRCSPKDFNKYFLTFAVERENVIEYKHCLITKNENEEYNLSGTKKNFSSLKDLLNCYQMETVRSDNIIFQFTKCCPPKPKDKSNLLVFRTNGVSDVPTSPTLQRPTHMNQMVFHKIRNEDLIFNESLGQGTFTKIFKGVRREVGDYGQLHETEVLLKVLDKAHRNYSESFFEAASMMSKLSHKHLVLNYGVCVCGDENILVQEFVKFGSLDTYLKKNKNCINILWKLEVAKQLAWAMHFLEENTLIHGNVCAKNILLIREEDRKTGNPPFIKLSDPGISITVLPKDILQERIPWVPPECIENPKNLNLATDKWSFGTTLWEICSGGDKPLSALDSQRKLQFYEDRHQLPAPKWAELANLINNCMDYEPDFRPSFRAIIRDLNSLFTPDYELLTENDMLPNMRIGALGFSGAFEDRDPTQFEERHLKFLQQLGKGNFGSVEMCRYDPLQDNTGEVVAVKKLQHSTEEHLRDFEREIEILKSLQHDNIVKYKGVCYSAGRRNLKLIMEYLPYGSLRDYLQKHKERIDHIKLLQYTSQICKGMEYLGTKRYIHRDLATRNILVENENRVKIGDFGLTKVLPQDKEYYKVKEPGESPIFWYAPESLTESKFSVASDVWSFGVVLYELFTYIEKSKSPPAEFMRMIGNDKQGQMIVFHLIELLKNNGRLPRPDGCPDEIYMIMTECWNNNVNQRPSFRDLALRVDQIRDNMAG

[11] = biological target: MERTK (UniProt Q12866); assay: as above
[12] = tested on: c-Abl (mouse); assay: as above
[13] = tested on: c-Src; assay: as above
[14] = biological target: Grb2 SH2 (UniProt P62993); assay: SH2 binding enrichment of the phosphorylated peptide, bacterial display (enrichment ratio); higher = better substrate or ligand; peptides without Tyr show the background
[15] = biological target: SHP2-C SH2; assay: as above
[16] = biological target: c-Src SH2; assay: as above
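For SH2 binding enrichment of the phosphorylated peptide, bacterial display in this document: peptide library displayed on the E. coli surface as eCPX fusions, selected cells deep-sequenced, score is each peptide's frequency after selection divided by its frequency in the input.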
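For phosphorylation enrichment, bacterial display in this document: 11-residue human phosphosite peptides and single-mutation variants displayed on the E. coli surface, counted by deep sequencing, each peptide's frequency after selection divided by its frequency in the unselected input library; frequency after pTyr selection over input frequency; kinase dosed for 20-30% of maximal phosphorylation in three min.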

Sequence	phosphorylation enrichment [1]	phosphorylation enrichment [2]	phosphorylation enrichment [3]	phosphorylation enrichment [4]	phosphorylation enrichment [5]	phosphorylation enrichment [6]	phosphorylation enrichment [7]	phosphorylation enrichment [8]	phosphorylation enrichment [9]	phosphorylation enrichment [10]	phosphorylation enrichment [11]	phosphorylation enrichment [12]	phosphorylation enrichment [13]	SH2 binding enrichment [14]	SH2 binding enrichment [15]	SH2 binding enrichment [16]
MAPQMYESHLP [NCAPD2_Y6_F8S]	0.501	0.548	0.702	0.477	0.657	9.41	0.555	0.45	0.568	0.524	0.466	0.437	0.378	0.76	0.495	0.71
MARDISRASYY [ALK_Y1278_Y1278S]	0.525	0.422	0.395	0.464	0.452	0.33	0.73	0.475	0.395	0.65	0.453	0.59	0.463	0.776	0.519	0.433
MCVKSYTIHFS [F5_Y2153_Y2149C_YF]	1.47	0.718	0.622	0.525	1.01	0.552	1.41	0.489	0.546	1.05	0.448	1.02	0.565	0.841	0.617	0.485
MDDPRYGMCPL [ZNF100_Y6]	1.16	0.687	0.675	0.538	0.838	0.607	1.38	0.721	0.56	1.27	0.56	1.01	0.685	0.632	0.506	0.522
MFNPYYGLFEY [NEDD4L_Y680]	2.18	7.89	9.35	8.53	7.3	7.76	2.16	7.66	7.23	7.13	7.1	5.87	5.76	1.56	1.64	1.75
MHDSNSVSKGS [PDGFRA_Y849_Y849S]	0.445	0.282	0.374	0.402	0.329	0.392	0.523	0.381	0.432	0.687	0.448	0.424	0.428	0.787	0.595	0.465
MSGDVYSTDFF [NTRK2_Y702_R699G_YF]	1.08	1.02	1.32	1.42	1.18	0.775	1.06	5.33	2.4	0.959	6.82	0.736	4.62	0.701	1.15	0.526
MSGDVYSTDYY [NTRK2_Y702_R699G]	1.99	1.58	1.99	3.16	2.29	0.863	1.16	4.31	2.39	1.05	6.54	0.784	4.64	0.778	0.874	0.622
MSLDQYSPSFP [FGFR1_Y776_P772S]	0.68	0.374	0.465	0.468	0.549	0.429	0.782	0.551	0.481	0.929	0.44	0.598	0.454	0.825	0.646	0.45
MSPPGYKLVNG [GJA1_Y286_T290N]	0.429	0.403	0.38	0.58	0.438	0.315	0.561	0.412	0.448	0.564	0.412	0.52	0.461	0.837	0.609	0.439
MSSHHYDYKKY [ZNF445_Y428]	0.503	0.394	0.375	0.338	0.46	0.408	0.513	0.415	0.421	0.441	0.339	0.438	0.383	0.799	0.692	0.64
MVIPNYSSWTE [UROC1_Y185_R188W]	1.31	11.1	13.5	1.11	1.07	1.78	1.23	0.689	0.862	1.16	3.74	0.999	0.719	0.864	0.812	0.735
NALAQYQEMEK [BBS4_Y395]	1.1	0.466	0.471	0.594	0.658	0.454	0.967	0.545	0.612	0.714	0.467	0.512	0.366	0.795	0.808	3.07
NDQANYSLNTD [ADA_Y290]	0.966	0.623	0.68	0.566	0.749	0.498	0.982	0.585	0.465	0.981	0.561	0.814	0.535	0.764	0.696	0.554
NFDRIYIFHLR [MYOF_Y1137_V1136I_YF]	1.53	0.732	0.705	0.594	0.791	0.606	1.42	0.605	0.507	1.46	0.524	0.993	0.724	1.59	2.07	1.15
NGPDVYVLPLT [AATK_Y93]	1.33	0.626	0.511	0.685	0.613	0.414	0.792	2.32	0.671	0.8	1.69	0.645	1.04	0.804	0.743	0.552
